Measurements from IntAct's records for PubMed 25910212.

B1: Keratin, type II cytoskeletal 1 (Homo sapiens), P04264 (parent)
chain: MSRQFSSRSGYRSGGGFSSGSAGIINYQRRTTSSSTRRSGGGGGRFSSCGGGGGSFGAGGGFGSRSLVNLGGSKSISISVARGGGRGSGFGGGYGGGGFGGGGFGGGGFGGGGIGGGGFGGFGSGGGGFGGGGFGGGGYGGGYGPVCPPGGIQEVTINQSLLQPLNVEIDPEIQKVKSREREQIKSLNNQFASFIDKVRFLEQQNQVLQTKWELLQQVDTSTRTHNLEPYFESFINNLRRRVDQLKSDQSRLDSELKNMQDMVEDYRNKYEDEINKRTNAENEFVTIKKDVDGAYMTKVDLQAKLDNLQQEIDFLTALYQAELSQMQTQISETNVILSMDNNRSLDLDSIIAEVKAQYEDIAQKSKAEAESLYQSKYEELQITAGRHGDSVRNSKIEISELNRVIQRLRSEIDNVKKQISNLQQSISDAEQRGENALKDAKNKLNDLEDALQQAKEDLARLLRDYQELMNTKLALDLEIATYRTLLEGEESRMSGECAPNVSVSVSTSHTTISGGGSRGGGGGGYGSGGSSYGSGGGSYGSGGGGGGGRGSYGSGGSSYGSGGGSYGSGGGGGGHGSYGSGSSSGGYRGGSGGGGGGSSGGRGSGGGSSGGSIGGRGSSSGGVKSSGGSSSVKFVSTTYSGVTR
partner: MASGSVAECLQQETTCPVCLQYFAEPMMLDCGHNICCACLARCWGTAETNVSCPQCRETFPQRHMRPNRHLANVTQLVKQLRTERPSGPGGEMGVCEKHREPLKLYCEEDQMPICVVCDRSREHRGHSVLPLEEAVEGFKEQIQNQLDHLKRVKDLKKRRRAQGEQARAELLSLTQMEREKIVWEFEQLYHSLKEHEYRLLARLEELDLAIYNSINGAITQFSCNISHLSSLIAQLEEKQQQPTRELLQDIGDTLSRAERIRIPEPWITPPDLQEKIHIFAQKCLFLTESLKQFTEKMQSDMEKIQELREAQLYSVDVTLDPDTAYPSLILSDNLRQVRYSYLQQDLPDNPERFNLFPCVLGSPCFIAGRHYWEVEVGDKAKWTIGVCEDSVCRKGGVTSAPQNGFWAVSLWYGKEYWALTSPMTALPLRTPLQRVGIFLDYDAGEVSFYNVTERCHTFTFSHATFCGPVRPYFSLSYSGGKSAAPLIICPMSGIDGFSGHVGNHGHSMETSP
B2: Keratin, type II cytoskeletal 1 (Homo sapiens), P04264 (parent)
chain: B1 chain
B3: Cyclin-dependent kinase 4 (Homo sapiens), P11802 (parent)
chain: MATSRYEPVAEIGVGAYGTVYKARDPHSGHFVALKSVRVPNGGGGGGGLPISTVREVALLRRLEAFEHPNVVRLMDVCATSRTDREIKVTLVFEHVDQDLRTYLDKAPPPGLPAETIKDLMRQFLRGLDFLHANCIVHRDLKPENILVTSGGTVKLADFGLARIYSYQMALTPVVVTLWYRAPEVLLQSTYATPVDMWSVGCIFAEMFRRKPLFCGNSEADQLGKIFDLIGLPPEDDWPRDVSLPRGAFPPRGPRPVQSVVPEMEESGAQLLLEMLTFNPHKRISAFRALQHSYLHKDEGNPE

Variants of: B1
Conditions: with tri27_human TRIM27, P14373

| Variant | effect of a mutation on the interaction |
| --- | --- |
| L161P | causing an interaction |

Variants of: B2
Conditions: with nup62_human NUP62, P37198
Chain of nup62_human NUP62, P37198 (P37198 whole entry): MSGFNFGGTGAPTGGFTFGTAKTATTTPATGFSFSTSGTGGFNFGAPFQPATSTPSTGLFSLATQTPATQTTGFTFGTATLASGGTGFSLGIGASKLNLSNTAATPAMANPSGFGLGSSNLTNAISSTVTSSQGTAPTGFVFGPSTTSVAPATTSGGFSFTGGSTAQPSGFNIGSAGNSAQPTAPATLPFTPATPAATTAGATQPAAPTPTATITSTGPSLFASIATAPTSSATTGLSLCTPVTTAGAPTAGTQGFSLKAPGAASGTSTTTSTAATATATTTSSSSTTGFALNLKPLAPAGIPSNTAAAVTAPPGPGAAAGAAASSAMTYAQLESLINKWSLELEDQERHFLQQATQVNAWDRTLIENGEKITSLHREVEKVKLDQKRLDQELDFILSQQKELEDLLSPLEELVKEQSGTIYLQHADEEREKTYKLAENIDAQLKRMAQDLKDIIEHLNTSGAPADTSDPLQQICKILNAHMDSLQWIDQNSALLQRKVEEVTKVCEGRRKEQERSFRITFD

| Variant | effect of a mutation on the interaction |
| --- | --- |
| L161P | causing an interaction |

Variants of: B2
Conditions: with KRT15, P19012
Chain of KRT15, P19012 (P19012 whole entry): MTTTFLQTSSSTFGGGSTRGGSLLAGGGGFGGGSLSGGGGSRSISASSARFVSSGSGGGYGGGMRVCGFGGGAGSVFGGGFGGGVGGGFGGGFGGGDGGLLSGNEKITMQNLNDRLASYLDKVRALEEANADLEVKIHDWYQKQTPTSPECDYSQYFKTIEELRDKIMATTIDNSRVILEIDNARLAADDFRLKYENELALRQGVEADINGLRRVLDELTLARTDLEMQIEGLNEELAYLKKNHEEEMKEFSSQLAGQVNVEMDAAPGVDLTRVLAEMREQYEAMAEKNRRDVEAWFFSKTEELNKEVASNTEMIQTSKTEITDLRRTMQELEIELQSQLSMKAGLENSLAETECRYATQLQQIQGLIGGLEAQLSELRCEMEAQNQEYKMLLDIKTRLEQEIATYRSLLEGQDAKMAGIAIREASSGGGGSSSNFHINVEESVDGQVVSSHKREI

| Variant | effect of a mutation on the interaction |
| --- | --- |
| L161P | causing an interaction |

Variants of: B2
Conditions: with kt33b_human KRT33B

| Variant | effect of a mutation on the interaction |
| --- | --- |
| L161P | causing an interaction |

Variants of: B2
Conditions: with goga2_human GOLGA2, Q08379
Chain of goga2_human GOLGA2, Q08379 (Q08379 whole entry): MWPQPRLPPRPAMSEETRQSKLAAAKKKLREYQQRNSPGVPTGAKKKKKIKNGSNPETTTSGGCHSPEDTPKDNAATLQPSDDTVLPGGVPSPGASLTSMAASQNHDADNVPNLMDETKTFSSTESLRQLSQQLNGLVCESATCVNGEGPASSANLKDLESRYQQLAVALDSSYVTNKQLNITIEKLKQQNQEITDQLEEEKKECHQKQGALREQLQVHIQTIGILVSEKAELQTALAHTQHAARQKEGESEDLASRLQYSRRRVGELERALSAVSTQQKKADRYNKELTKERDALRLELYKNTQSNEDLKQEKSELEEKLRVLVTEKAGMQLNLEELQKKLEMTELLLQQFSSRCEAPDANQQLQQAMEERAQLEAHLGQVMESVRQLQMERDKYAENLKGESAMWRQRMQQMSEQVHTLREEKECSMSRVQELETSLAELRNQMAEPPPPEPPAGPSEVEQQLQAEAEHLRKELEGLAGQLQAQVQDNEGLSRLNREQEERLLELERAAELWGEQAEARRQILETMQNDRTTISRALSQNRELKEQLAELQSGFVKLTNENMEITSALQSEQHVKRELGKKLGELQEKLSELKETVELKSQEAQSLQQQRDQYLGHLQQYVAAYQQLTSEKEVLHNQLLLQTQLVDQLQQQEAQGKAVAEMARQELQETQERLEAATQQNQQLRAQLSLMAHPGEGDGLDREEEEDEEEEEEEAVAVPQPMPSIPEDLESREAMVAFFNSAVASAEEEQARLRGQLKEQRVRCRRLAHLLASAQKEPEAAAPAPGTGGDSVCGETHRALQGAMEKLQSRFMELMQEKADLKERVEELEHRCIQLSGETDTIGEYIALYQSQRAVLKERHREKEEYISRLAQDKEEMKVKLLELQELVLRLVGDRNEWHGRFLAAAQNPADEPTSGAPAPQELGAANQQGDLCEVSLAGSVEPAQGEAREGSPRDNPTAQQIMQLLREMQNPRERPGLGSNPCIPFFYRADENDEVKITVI

| Variant | effect of a mutation on the interaction |
| --- | --- |
| L161P | causing an interaction |

Variants of: B2
Conditions: with KRT15, P19012
Remark: another data set of the same source

| Variant | effect of a mutation on the interaction |
| --- | --- |
| L161P | with no effect |

Variants of: B2
Conditions: with kt33b_human KRT33B
Remark: another data set of the same source

| Variant | effect of a mutation on the interaction |
| --- | --- |
| L161P | with no effect |

Variants of: B3
Conditions: with ccnd1_human CCND1, P24385
Chain of ccnd1_human CCND1, P24385 (P24385 whole entry): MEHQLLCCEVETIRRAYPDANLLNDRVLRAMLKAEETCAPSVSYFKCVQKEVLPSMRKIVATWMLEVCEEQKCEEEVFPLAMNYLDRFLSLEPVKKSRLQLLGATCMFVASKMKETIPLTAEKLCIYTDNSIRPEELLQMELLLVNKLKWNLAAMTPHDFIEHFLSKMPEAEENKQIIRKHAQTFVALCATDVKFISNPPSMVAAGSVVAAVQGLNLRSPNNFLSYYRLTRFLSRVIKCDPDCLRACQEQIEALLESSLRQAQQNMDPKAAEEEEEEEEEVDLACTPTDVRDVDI

| Variant | effect of a mutation on the interaction |
| --- | --- |
| MATSRYEPVAEIGVGAYGTVYKACDPHSGHFVALKSVRVPNGGGGGGGLPISTVREVALLRRLEAFEHPNVVRLMDVCATSRTDREIKVTLVFEHVDQDLRTYLDKAPPPGLPAETIKDLMRQFLRGLDFLHANCIVHRDLKPENILVTSGGTVKLADFGLARIYSYQMALTPVVVTLWYRAPEVLLQSTYATPVDMWSVGCIFAEMFRRKPLFCGNSEADQLGKIFDLIGLPPEDDWPRDVSLPRGAFPPRGPRPVQSVVPEMEESGAQLLLEMLTFNPHKRISAFRALQHSYLHKDEGNPE [R24C] | with no effect |

Variants of: B3
Conditions: with ccnd3_human CCND3, P30281
Chain of ccnd3_human CCND3, P30281 (P30281 whole entry): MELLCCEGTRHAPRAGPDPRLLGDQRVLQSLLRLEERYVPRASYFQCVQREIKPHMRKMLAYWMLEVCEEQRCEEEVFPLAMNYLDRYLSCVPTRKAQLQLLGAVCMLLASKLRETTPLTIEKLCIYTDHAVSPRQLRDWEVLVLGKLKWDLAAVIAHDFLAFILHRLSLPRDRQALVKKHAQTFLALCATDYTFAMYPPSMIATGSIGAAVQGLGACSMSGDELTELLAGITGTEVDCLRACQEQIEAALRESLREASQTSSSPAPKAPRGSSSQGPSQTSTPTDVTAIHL

| Variant | effect of a mutation on the interaction |
| --- | --- |
| MATSRYEPVAEIGVGAYGTVYKACDPHSGHFVALKSVRVPNGGGGGGGLPISTVREVALLRRLEAFEHPNVVRLMDVCATSRTDREIKVTLVFEHVDQDLRTYLDKAPPPGLPAETIKDLMRQFLRGLDFLHANCIVHRDLKPENILVTSGGTVKLADFGLARIYSYQMALTPVVVTLWYRAPEVLLQSTYATPVDMWSVGCIFAEMFRRKPLFCGNSEADQLGKIFDLIGLPPEDDWPRDVSLPRGAFPPRGPRPVQSVVPEMEESGAQLLLEMLTFNPHKRISAFRALQHSYLHKDEGNPE [R24C] | with no effect |

Variants of: B3
Conditions: with ccnd2_human CCND2, P30279
Chain of ccnd2_human CCND2, P30279 (P30279 whole entry): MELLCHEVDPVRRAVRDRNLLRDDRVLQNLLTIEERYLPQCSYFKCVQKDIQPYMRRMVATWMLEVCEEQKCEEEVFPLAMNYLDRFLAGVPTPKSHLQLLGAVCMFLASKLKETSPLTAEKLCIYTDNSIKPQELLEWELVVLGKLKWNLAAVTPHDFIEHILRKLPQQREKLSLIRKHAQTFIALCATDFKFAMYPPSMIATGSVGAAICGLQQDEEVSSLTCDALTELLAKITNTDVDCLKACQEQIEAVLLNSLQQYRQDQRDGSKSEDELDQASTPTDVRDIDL

| Variant | effect of a mutation on the interaction |
| --- | --- |
| MATSRYEPVAEIGVGAYGTVYKACDPHSGHFVALKSVRVPNGGGGGGGLPISTVREVALLRRLEAFEHPNVVRLMDVCATSRTDREIKVTLVFEHVDQDLRTYLDKAPPPGLPAETIKDLMRQFLRGLDFLHANCIVHRDLKPENILVTSGGTVKLADFGLARIYSYQMALTPVVVTLWYRAPEVLLQSTYATPVDMWSVGCIFAEMFRRKPLFCGNSEADQLGKIFDLIGLPPEDDWPRDVSLPRGAFPPRGPRPVQSVVPEMEESGAQLLLEMLTFNPHKRISAFRALQHSYLHKDEGNPE [R24C] | with no effect |

Variants of: B3
Conditions: with cdn2b_human CDKN2B

| Variant | effect of a mutation on the interaction |
| --- | --- |
| MATSRYEPVAEIGVGAYGTVYKACDPHSGHFVALKSVRVPNGGGGGGGLPISTVREVALLRRLEAFEHPNVVRLMDVCATSRTDREIKVTLVFEHVDQDLRTYLDKAPPPGLPAETIKDLMRQFLRGLDFLHANCIVHRDLKPENILVTSGGTVKLADFGLARIYSYQMALTPVVVTLWYRAPEVLLQSTYATPVDMWSVGCIFAEMFRRKPLFCGNSEADQLGKIFDLIGLPPEDDWPRDVSLPRGAFPPRGPRPVQSVVPEMEESGAQLLLEMLTFNPHKRISAFRALQHSYLHKDEGNPE [R24C] | with no effect |

Variants of: B3
Conditions: with cdn2c_human CDKN2C

| Variant | effect of a mutation on the interaction |
| --- | --- |
| MATSRYEPVAEIGVGAYGTVYKACDPHSGHFVALKSVRVPNGGGGGGGLPISTVREVALLRRLEAFEHPNVVRLMDVCATSRTDREIKVTLVFEHVDQDLRTYLDKAPPPGLPAETIKDLMRQFLRGLDFLHANCIVHRDLKPENILVTSGGTVKLADFGLARIYSYQMALTPVVVTLWYRAPEVLLQSTYATPVDMWSVGCIFAEMFRRKPLFCGNSEADQLGKIFDLIGLPPEDDWPRDVSLPRGAFPPRGPRPVQSVVPEMEESGAQLLLEMLTFNPHKRISAFRALQHSYLHKDEGNPE [R24C] | disrupting interaction strength |

Variants of: B3
Conditions: with ccnd2_human CCND2, P30279
Remark: another data set of the same source

| Variant | effect of a mutation on the interaction |
| --- | --- |
| MATSRYEPVAEIGVGAYGTVYKACDPHSGHFVALKSVRVPNGGGGGGGLPISTVREVALLRRLEAFEHPNVVRLMDVCATSRTDREIKVTLVFEHVDQDLRTYLDKAPPPGLPAETIKDLMRQFLRGLDFLHANCIVHRDLKPENILVTSGGTVKLADFGLARIYSYQMALTPVVVTLWYRAPEVLLQSTYATPVDMWSVGCIFAEMFRRKPLFCGNSEADQLGKIFDLIGLPPEDDWPRDVSLPRGAFPPRGPRPVQSVVPEMEESGAQLLLEMLTFNPHKRISAFRALQHSYLHKDEGNPE [R24C] | disrupting interaction strength |
